{"source": "patent US20240254220A1", "about": "“COMBINED THERAPY USING ANTI-CD300C ANTIBODY” (CentricsBio, Inc., priority 2021, published 2024)", "molecules": {"B1": {"name": "CL7: anti-CD300c monoclonal antibody, VH3VL1 phage library, VH SEQ ID 327, VL SEQ ID 328 (antibody, V domains shown)", "VH": "EVQLLESGGGLVQPGGSLRLSCAASGFTFSRYAMSWVRQAPGKGLEWVSAISGSGGSTYYADSVKGRFTISRDNSKNTLYLQMNSLRAEDTAVYYCARSSQGIFDIWGQGTLVTVSS", "VL": "QSVLTQPPSASGTPGQRVTISCSGNNIGTRRVHWYQQLPDTAPKLLIYSKNNRPSGVPDRFSGSKSGTSASLAISGLRSEDEADYYCAAWDDSLSGPVFGGGTKLTVL", "modifications": "CL7 Heavy Chain Variable Region; CL7 Light Chain Variable Region"}}, "key": {"[1]": {"tested_on": "colon cancer cell line (CT26) tumor", "experiment": "Nanostring Immune profiling of CT26 tumor tissue", "format": "in vivo, BALB/c mice", "conditions": "25 mg/kg i.p., tumor RNA, vs control", "method": "In order to identify changes in expression of immune cell- and tumor microenvironment-related markers when solid cancer models are administered the anti-CD300c monoclonal antibody (CL7) produced in Example 1, a colon cancer cell line (CT26) at 2×10^5 cells was transplanted by subcutaneous injection into 8-week-old BALB/c mice to prepare syngeneic mouse tumor models. Animal breeding and experiments were all conducted in a specific pathogen free (SPF) facility. In addition, 12 days after transplantation of the colon cancer cell line, the mice with a tumor size of 50 mm^3 to 100 mm^3 were separately administered the anti-CD300c monoclonal antibody, and for a control group, the mice were injected with the same amount of phosphate buffered saline (PBS). The mice were intraperitoneally injected with 25 mg/kg twice a week for two weeks over a total of 4 times. On day 25 after the injection, the mice were euthanized, and the tumor tissue was prepared. RNA was extracted and purified therefrom, and changes in dendritic cell markers, macrophage markers, tumor microenvironment (TME) markers, Th1 response markers, or Th2 response markers were identified through Nanostring Immune profiling.\nOn the basis of the Nanostring Immune profiling results obtained in Example 2.1, it was identified which immune checkpoint markers show a significant difference in expression compared with the control group when syngeneic mouse tumor models are administered the anti-CD300c monoclonal antibody."}, "[2]": {"target": "T1, CD300a antigen (Homo sapiens, UniProt Q9UGN4)", "T1 construct": "purchased Sino Biological 12449-H08H", "T1 sequence (Q9UGN4 18-180 limits assumed)": "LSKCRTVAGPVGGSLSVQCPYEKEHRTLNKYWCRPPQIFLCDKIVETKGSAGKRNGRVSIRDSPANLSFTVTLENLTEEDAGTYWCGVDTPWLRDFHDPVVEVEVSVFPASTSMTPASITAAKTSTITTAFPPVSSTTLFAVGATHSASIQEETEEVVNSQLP", "experiment": "CD300a cross-reactivity binding ELISA", "conditions": "CD300a antigen 0.039, 0.63, 10 μg/mL", "method": "More specifically, the CD300a antigen (from Sino Biological) was used to treat at concentrations of 0.039 μg/mL, 0.63 μg/mL, and 10 μg/mL, and then binding ELISA was performed by the same method as in Experimental Example 2.1."}, "[3]": {"tested_on": "colon cancer cell line (CT26) tumor", "experiment": "Tumor immune cell FACS analysis in CT26 syngeneic mouse tumor model", "format": "in vivo, BALB/c mice", "source_text": "In order to identify effects of the anti-CD300c monoclonal antibody CL7 on tumor-associated macrophages under in vivo conditions, a colon cancer cell line (CT26) at 2×10^5 cells was transplanted by subcutaneous injection into 8-week-old BALB/c mice to prepare syngeneic mouse tumor models. Animal breeding and experiments were all conducted in a specific pathogen free (SPF) facility. In addition, 12 days after transplantation of the colon cancer cell line, the mice with a tumor size of 50 mm^3 to 100 mm^3 were separately administered the anti-CD300c monoclonal antibody, and for a control group, the mice were injected with the same amount of phosphate buffered saline (PBS). The mice were intraperitoneally injected with 25 mg/kg of each substance twice a week for two weeks over a total of 4 times. On day 25 after the injection, the mice were sacrificed, and the tumor tissue was collected from each of six mice in the CL7 25 mg/kg administration group showing a highest antitumor effect compared with the control group. The tumor tissue was taken out and then incubated at 37° C. for 1 hour in a mixed solution of collagenase D (20 mg/mL) and DNase I (2 mg/mL). Thereafter, the resultant product was filtered through a 70 μm cell strainer, followed by the lysis of red blood cells, and then again filtered through a nylon mesh. Subsequently, the single cell suspension was blocked with CD16/32 antibody (from Invitrogen), and the cells were stained with a staining solution for checking cell viability (from Invitrogen), and antibodies (from Abcam) to the total macrophage marker F4/80 and the M1 macrophage marker iNOS. Then, the data were read with CytoFLEX flow cytometer and analyzed with FlowJo software.\nIn order to identify effects of the anti-CD300c monoclonal antibody CL7 on CD8+ T cells under in vivo conditions, syngeneic mouse tumor models were prepared as in Experimental Example 3.2 and administered the anti-CD300c monoclonal antibody at the same concentration.\n(§1) On day 25 after the injection, the mice were sacrificed, and the tumor tissue was collected from each of six mice in the CL7 25 mg/kg administration group showing a highest antitumor effect compared with the control group. The tumor tissue was taken out and then incubated at 37° C. for 1 hour in a mixed solution of collagenase D (20 mg/mL) and DNase I (2 mg/mL). Thereafter, the resultant product was filtered through a 70 μm cell strainer, followed by the lysis of red blood cells, and then again filtered through a nylon mesh. Subsequently, the single cell suspension was blocked with CD16/32 antibody (from Invitrogen), and the cells were stained with a staining solution for checking cell viability and a CD8+ antibody (from Abcam) and a CD4+ antibody (from Abcam). Thereafter, the data were read with CytoFLEX flow cytometer and analyzed with FlowJo software.\nas §1, with “In order to identify whether the anti-CD300c monoclonal antibody CL7 increases the number of CD8+ T cells in a tumor-specific manner, syngeneic mouse tumor models were prepared as in Experimental Example 3.2 and administered the anti-CD300c monoclonal antibody at the same concentration. On” for “On”, “AH1 tetramer” for “a CD8+ antibody (from Abcam) and a CD4+”, “software. […]” for “software.”"}, "[4]": {"conditions": "Experimental Example 3.7, 25 mg/kg i.p., day 25"}}}
{"molecule": "B1", "values": [{"measurement": "expression of M1 macrophage markers CCR7, CD80", "setting": "[1]", "value": "significantly increase"}, {"measurement": "expression of Th1 response markers Tbx21, Stat1, Stat4, Ifn-g, Cxcr3", "setting": "[1]", "value": "increase"}, {"measurement": "expression of agonistic immune checkpoints ICOS, OX40, Gitr, Cd27, Cd28", "setting": "[1]", "value": "increases"}, {"measurement": "expression of dendritic cell markers Bst2, CCL8, Xcl1", "setting": "[1]", "value": "significantly increase"}, {"measurement": "expression of inhibitory immune checkpoints PD-1, CTLA-4, Lag3", "setting": "[1]", "value": "increases"}, {"measurement": "expression of tumor microenvironment markers vegfa, pdgfrb, Col4a1, Hif1a", "setting": "[1]", "value": "reduction"}, {"measurement": "binding to antigens other than CD300c (CD300a)", "setting": "[2]", "value": "did not bind to antigens other than CD300c"}, {"measurement": "expression level of M1 type tumor-associated macrophages in cancer tissue", "setting": "[3]; 25 mg/kg i.p. twice a week, 4 times, day 25, vs PBS", "value": "increased"}, {"measurement": "CD8+ T cells compared with Treg T cells", "setting": "[3]; 25 mg/kg i.p., day 25", "value": "increased"}, {"measurement": "expression of AH1 tetramer in CD8+ T cells", "setting": "[3]; 25 mg/kg i.p., day 25", "value": "increased"}, {"measurement": "number of T cells in tumor", "setting": "[3]; 25 mg/kg i.p., day 25, CD8+/CD4+ staining", "value": "increased"}, {"measurement": "activated CD8+ T cells", "setting": "[3]; [4]", "value": "significantly increased"}, {"measurement": "regulatory T cells", "setting": "[3]; [4]", "value": "inhibited"}, {"measurement": "tumor-associated macrophage phenotype", "setting": "[3]; [4]", "value": "repolarized tumor-associated macrophages towards M1 phenotype"}]}
